# Measured values: patent US20130281360A1
# Like-named read-outs stand apart in the source and are kept apart here.
# How the values were obtained:
# [1] = biological target: E. coli MG1655 SPase (LepB) with His at residue 84, in the strain (Escherichia coli K-12 MG1655) (UniProt P00803); test: cell-based or functional assay
# [2] = biological target: E. coli MG1655 SPase (LepB) with Phe at residue 84, in the strain (Escherichia coli K-12 MG1655) (UniProt P00803); test: cell-based or functional assay
# [3] = biological target: full-length His-tagged S. aureus SPase (SpsB), wild type (Staphylococcus aureus NCTC 8325); test: equilibrium binding by the increase of arylomycin fluorescence (ex 320 nm, em 410 nm) with full-length His-tagged S. aureus SPase
# [4] = biological target: full-length His-tagged S. aureus SPase (SpsB), P29S mutant (Staphylococcus aureus NCTC 8325); test: as above
# [5] = biological target: S. aureus NCTC 8325 SPase (SpsB), wild type, in the strain (Staphylococcus aureus NCTC 8325); test: cell-based or functional assay
# [6] = biological target: E. coli MG1655 SPase (LepB) with Arg at residue 84, in the strain (Escherichia coli K-12 MG1655) (UniProt P00803); test: cell-based or functional assay
# [7] = biological target: E. coli MG1655 SPase (LepB) with His at residue 84, in the strain (Escherichia coli K-12 MG1655) (UniProt P00803); test: cell-based or functional assay; remark: listed apart in the source
# [8] = biological target: E. coli MG1655 SPase (LepB) with Trp at residue 84, in the strain (Escherichia coli K-12 MG1655) (UniProt P00803); test: cell-based or functional assay
# [9] = biological target: P. aeruginosa SPase (LepB) P84S, in strain PAS2006 (Pseudomonas aeruginosa PAO1) (UniProt Q9I5G7); test: cell-based or functional assay
# [10] = biological target: E. coli SPase (LepB) P84S, in strain PAS0232 (Escherichia coli K-12 MG1655) (UniProt P00803); test: cell-based or functional assay
# [11] = biological target: E. coli MG1655 SPase (LepB) with Val at residue 84, in the strain (Escherichia coli K-12 MG1655) (UniProt P00803); test: cell-based or functional assay
# [12] = biological target: E. coli MG1655 SPase (LepB) with Lys at residue 84, in the strain (Escherichia coli K-12 MG1655) (UniProt P00803); test: cell-based or functional assay
# [13] = biological target: S. epidermidis RP62A signal peptidase IB (SpsIB), wild type, in the strain (Staphylococcus epidermidis RP62A); test: cell-based or functional assay
# [14] = biological target: E. coli MG1655 SPase (LepB) with Cys at residue 84, in the strain (Escherichia coli K-12 MG1655) (UniProt P00803); test: cell-based or functional assay
# [15] = biological target: S. epidermidis SpsIB S29P, in strain PAS9001 (Staphylococcus epidermidis RP62A); test: cell-based or functional assay
# [16] = biological target: E. coli MG1655 SPase (LepB) with Leu at residue 84, in the strain (Escherichia coli K-12 MG1655) (UniProt P00803); test: cell-based or functional assay
# [17] = biological target: E. coli MG1655 SPase (LepB), wild type, in the strain (Escherichia coli K-12 MG1655) (UniProt P00803); test: cell-based or functional assay
# [18] = biological target: E. coli MG1655 SPase (LepB) with Met at residue 84, in the strain (Escherichia coli K-12 MG1655) (UniProt P00803); test: cell-based or functional assay
# [19] = biological target: P. aeruginosa PAO1 SPase (LepB) P84L, in the strain lepB(P84L) P. aeruginosa PAO1 (Pseudomonas aeruginosa PAO1) (UniProt Q9I5G7); test: cell-based or functional assay
# [20] = biological target: E. coli MG1655 SPase (LepB) with Gln at residue 84, in the strain (Escherichia coli K-12 MG1655) (UniProt P00803); test: cell-based or functional assay
# [21] = biological target: E. coli MG1655 SPase (LepB) with Asn at residue 84, in the strain (Escherichia coli K-12 MG1655) (UniProt P00803); test: cell-based or functional assay
# [22] = biological target: S. epidermidis SpsIB S31P, in strain PAS9002 (Staphylococcus epidermidis RP62A); test: cell-based or functional assay
# [23] = biological target: E. coli MG1655 SPase (LepB) with Glu at residue 84, in the strain (Escherichia coli K-12 MG1655) (UniProt P00803); test: cell-based or functional assay
# [24] = biological target: P. aeruginosa PAO1 SPase (LepB), wild type, in the strain (Pseudomonas aeruginosa PAO1) (UniProt Q9I5G7); test: cell-based or functional assay
# [25] = biological target: S. aureus SPase (SpsB) P29S, in strain PAS8001 (Staphylococcus aureus NCTC 8325); test: cell-based or functional assay
# [26] = biological target: E. coli MG1655 SPase (LepB) with Asp at residue 84, in the strain (Escherichia coli K-12 MG1655) (UniProt P00803); test: cell-based or functional assay
# [27] = biological target: E. coli MG1655 SPase (LepB) with Ile at residue 84, in the strain (Escherichia coli K-12 MG1655) (UniProt P00803); test: cell-based or functional assay
# [28] = biological target: E. coli MG1655 SPase (LepB) with Ala at residue 84, in the strain (Escherichia coli K-12 MG1655) (UniProt P00803); test: cell-based or functional assay
# [29] = biological target: E. coli MG1655 SPase (LepB) with Gly at residue 84, in the strain (Escherichia coli K-12 MG1655) (UniProt P00803); test: cell-based or functional assay
# [30] = biological target: E. coli MG1655 SPase (LepB) with Phe at residue 84, in the strain (Escherichia coli K-12 MG1655) (UniProt P00803); test: cell-based or functional assay; remark: listed apart in the source
# [31] = biological target: E. coli MG1655 SPase (LepB) with Tyr at residue 84, in the strain (Escherichia coli K-12 MG1655) (UniProt P00803); test: cell-based or functional assay
# [32] = biological target: E. coli MG1655 SPase (LepB) with Thr at residue 84, in the strain (Escherichia coli K-12 MG1655) (UniProt P00803); test: cell-based or functional assay
# [33] = biological target: full-length His-tagged S. aureus SPase (SpsB), wild type (Staphylococcus aureus NCTC 8325); test: steady-state binding by increase of arylomycin fluorescence, full-length SPase, buffer with 10% glycerol
# [34] = biological target: full-length His-tagged S. aureus SPase (SpsB), P29S mutant (Staphylococcus aureus NCTC 8325); test: as above
# [35] = biological target: truncated wild type E. coli SPase that lacks the N-terminal membrane helices (Δ2-75) (Escherichia coli K-12 MG1655) (UniProt P00803); test: steady state binding by the increase of arylomycin fluorescence (ex 320 nm, em 410 nm) with soluble N-terminally truncated E. coli SPase
# [36] = biological target: P84S variant of the truncated E. coli SPase (Δ2-75) (Escherichia coli K-12 MG1655) (UniProt P00803); test: as above
# [37] = biological target: truncated wild type E. coli SPase that lacks the N-terminal membrane helices (Δ2-75) (Escherichia coli K-12 MG1655) (UniProt P00803); test: steady-state binding by increase of arylomycin fluorescence (ex 320 nm, em 410 nm), SPase in n-octyl-β-glucopyranoside micelles
# [38] = biological target: P84S variant of the truncated E. coli SPase (Δ2-75) (Escherichia coli K-12 MG1655) (UniProt P00803); test: as above
# [39] = biological target: detergent-solubilized full-length His-tagged E. coli SPase, wild type (Escherichia coli) (UniProt P00803); test: equilibrium binding by the increase of arylomycin fluorescence (ex 320 nm, em 410 nm) with detergent-solubilized full-length E. coli SPase
# [40] = biological target: detergent-solubilized full-length His-tagged E. coli SPase, P84S variant (Escherichia coli) (UniProt P00803); test: as above
# [41] = biological target: detergent-solubilized full-length His-tagged E. coli SPase, wild type (Escherichia coli) (UniProt P00803); test: steady-state binding by increase of arylomycin fluorescence, detergent-solubilized full-length SPase
# [42] = biological target: detergent-solubilized full-length His-tagged E. coli SPase, P84S variant (Escherichia coli) (UniProt P00803); test: as above
substance,measurement,setting,value
arylomycin C16 (peptide),MIC of arylomycin C16 for the E. coli strain with this residue 84,[1],4 µg/mL
same,MIC of arylomycin C16 for the E. coli strain with this residue 84,[2],2 µg/mL
same,EC50 (read off the curve),[3],2000 nM
same,EC50 (read off the curve),[4],200 nM
same,MIC (µg/mL) of arylomycin C16 for the strain,[5],> 128 µg/mL
same,MIC (µg/ml) of arylomycin C16 for the resistant S. aureus strain,[5],> 64 µg/mL
same,MIC of arylomycin C16 for the E. coli strain with this residue 84,[6],< 16 µg/mL
same,MIC of arylomycin C16 for the E. coli strain with this residue 84,[7],< 16 µg/mL
same,MIC of arylomycin C16 for the E. coli strain with this residue 84,[8],< 16 µg/mL
same,MIC (µg/mL) of arylomycin C16 for the strain,[9],8 µg/mL
same,MIC (µg/mL) of arylomycin C16 for the strain,[10],2 µg/mL
same,MIC of arylomycin C16 for the E. coli strain with this residue 84,[10],< 16 µg/mL
same,MIC of arylomycin C16 for the E. coli strain with this residue 84,[11],< 16 µg/mL
same,MIC of arylomycin C16 for the E. coli strain with this residue 84,[12],< 16 µg/mL
same,MIC (µg/mL) of arylomycin C16 for the strain,[13],0.25 µg/mL
same,MIC (µg/ml) of arylomycin C16 for the sensitive S. epidermidis strain,[13],0.5 µg/mL
same,MIC of arylomycin C16 for the E. coli strain with this residue 84,[14],< 16 µg/mL
same,MIC (µg/mL) of arylomycin C16 for the strain,[15],8 µg/mL
same,MIC (µg/ml) of arylomycin C16 for the resistant S. epidermidis strain,[15],8 µg/mL
same,fold elevation of the MIC over the wild type strain,[15],32 fold
same,MIC (µg/ml) of arylomycin C16 for the sensitive E. coli strain,[16],0.5 µg/mL
same,MIC of arylomycin C16 for the E. coli strain with this residue 84,[16],< 16 µg/mL
same,MIC (µg/mL) of arylomycin C16 for the strain,[17],> 128 µg/mL
same,MIC (µg/ml) of arylomycin C16 for the resistant E. coli strain,[17],> 64 µg/mL
same,MIC of arylomycin C16 for the E. coli strain with this residue 84,[17],> 256 µg/mL
same,MIC of arylomycin C16 for the E. coli strain with this residue 84,[18],< 16 µg/mL
same,MIC (µg/ml) of arylomycin C16 for the sensitive P. aeruginosa strain,[19],8 µg/mL
same,MIC of arylomycin C16 for the E. coli strain with this residue 84,[20],< 16 µg/mL
same,MIC of arylomycin C16 for the E. coli strain with this residue 84,[21],< 16 µg/mL
same,MIC (µg/mL) of arylomycin C16 for the strain,[22],> 128 µg/mL
same,fold elevation of the MIC over the wild type strain,[22],> 256 fold
same,MIC of arylomycin C16 for the E. coli strain with this residue 84,[23],< 16 µg/mL
same,MIC (µg/mL) of arylomycin C16 for the strain,[24],> 128 µg/mL
same,MIC (µg/ml) of arylomycin C16 for the resistant P. aeruginosa strain,[24],> 64 µg/mL
same,MIC (µg/mL) of arylomycin C16 for the strain,[25],2 µg/mL
same,MIC (µg/ml) of arylomycin C16 for the sensitive S. aureus strain,[25],2 µg/mL
same,MIC of arylomycin C16 for the E. coli strain with this residue 84,[26],< 16 µg/mL
same,MIC of arylomycin C16 for the E. coli strain with this residue 84,[27],< 16 µg/mL
same,MIC of arylomycin C16 for the E. coli strain with this residue 84,[28],< 16 µg/mL
same,MIC of arylomycin C16 for the E. coli strain with this residue 84,[29],< 16 µg/mL
same,MIC of arylomycin C16 for the E. coli strain with this residue 84,[30],< 16 µg/mL
same,MIC of arylomycin C16 for the E. coli strain with this residue 84,[31],< 16 µg/mL
same,MIC of arylomycin C16 for the E. coli strain with this residue 84,[32],< 16 µg/mL
same,Kd,[33],1280 nM
same,Kd,[34],130 nM
same,EC50 (read off the curve),[35],2000 nM
same,EC50 (read off the curve),[36],100 nM
same,Kd,[37],979 nM
same,Kd,[38],39 nM
same,EC50 (read off the curve),[39],100 nM
same,EC50 (read off the curve),[40],10 nM
same,Kd,[40],5.73 nM
same,Kd,[41],60 nM
same,Kd,[42],5.7 nM
